Our source for the Kd, koff and kon values is paper PMC9519457 (Nature Microbiology, 2022).

What all share (assay): BLI
What all share (details): both partners purified

For test [1], the target named is T1, SARS-CoV-2 wild-type RBD (SARS-CoV-2 wild type).
For test [2], the target named is T1, SARS-CoV-2 wild-type RBD. The source holds these as a separate data set.
Test [3] addresses T1, SARS-CoV-2 wild-type RBD. This is another data set of the same source.
The target of test [4] is T1, SARS-CoV-2 wild-type RBD. This is another data set of the same source.
For test [5], the target named is SARS-CoV-2 RBD (residues 319-541), wild type (SARS-CoV-2, wild type, UniProt P0DTC2).

B1: C963 (antibody, V domains shown)
VH: QVQLVQSGAEVKKPGSSVRVSCKASGGTFSSFTITWVRQAPGQGLEWMGRIIPNLNIPNYAQRFQGRITITAEKSTSTAYLELSSLRSEDTAVYYCARGVGYSGSGSNWYFDLWGRGTLVTVSS
VL: QSVLTQPPSVSGAPGQRVTISCTGSSSNIGAGYDVHWYQQLPGTAPKLLISGHINRPSGVPDRFSGSTSGTSASLAITGLQAEDEADYYCQSYDSSLSDSVFGGGTKLTV
notes: human IgG1
The term Kd denotes a measure of binding affinity in units of concentration. A high value points to lower affinity. As a reminder, the koff is the first-order rate constant of dissociation. Lower therefore signals a long-lived complex. What is called kon is a measure of how fast the partners come together. High values mean fast association, low ones slow association. In the test with SARS-CoV-2 wild-type RBD [1], B1 gave a Kd of 840 pM, a koff of 0.000593 s⁻¹ and a kon of 709000 M⁻¹ s⁻¹.

B2: C941 (antibody, V domains shown)
VH: QVQLVQSGAEVKKPGSSVKVSCKASGGTSRSYPISWVRQAPGQGLEWMGRIIPIVGTANYAQRFQGRVTITADESTGTAYMELSSLRSEDTAVYYCARNRGYSDYGSVYYFDYWGQGTLVTVSS
VL: QSVLTQPPSVSGAPGQRVTISCTGSSSNIGAGYDVHWYQQLPGAAPKLLIYRNINRPSGVPDRFSGSKSGTSASLAITGLQADDEADYYCQSYDSSLSGSVFGGGTKLTV
notes: human IgG1
B2: in the test with SARS-CoV-2 wild-type RBD [1], binding was characterised by a dissociation constant (Kd) of 770 pM, the koff was found to be 0.000117 s⁻¹ and the on-rate (kon) was 153000 M⁻¹ s⁻¹.

B3: FC08 (antibody, V domains shown)
VH: QLLQQSGAEVKKPGSSVKVSCKASGGTFSSYAISWVRQAPGQGLEWMGGIIPIIGIANYAQKFQGRVTITADKSTSTAYMELSSLRSEDTAVYYCARERGYSGYGAAYYFDYWGQGTLVTVSS
VL: SVLTQPPSVSGAPGQRVTISCTGSSSNIGAGYDVHWYQQLPGTAPKLLIYGNSNRPSGVPDRFSGSKSGTSASLAITGLQAEDEADYYCQSYDSSLSGSVFGGGTKLTVL
With B3, in the test with SARS-CoV-2 wild-type RBD [2], the Kd came out at 350 pM, the koff was found to be 0.00028 s⁻¹ and the kon turned out to be 797000 M⁻¹ s⁻¹.

B4: C978 (antibody, V domains shown)
VH: QVQLVQSGAEVKKPGSSVKVSCKASGATFSNYIISWVRQAPGQGLEWMGRTIPLLDIANYAQKFQGRVTITADKSTRIVYMHLGSLTSEDTAVYYCATGKGYSSSSAAYYFDHWGQGTLVTVSS
VL: QSVLTQPPSVSGAPGQRVTISCTGTNSNIGAGYDIHWYQQLPGTAPKLLIYGSNNRPSGVPDRFSGSKSGTSASLAITGLQAEDEADYYCQSYDSSLSGSEVFGGGTKLTVL
notes: human IgG1
With B4, in the test with SARS-CoV-2 wild-type RBD [1], the Kd was 990 pM, the koff stood at 0.000524 s⁻¹ and the on-rate (kon) was 531000 M⁻¹ s⁻¹.

B5: R1-32 (antibody, V domains shown)
VH: EVQLVESGAEVKKPGSSVKVSCKASGGTFSSYAISWVRQAPGQGLEWMGGIIPILGIANYAQKFQGRVTITADKSTSTAYMELSSLRSEDTAVYYCARENGYSGYGAAANFDLWGRGTLVTVSS
VL: QSVLTQPPSVSGAPGQRVTISCTGSSSNIGAGYDVHWYQQLPGTAPKLLIYGNSNRPSGVPDRFSGSKSGTSASLAITGLQAEDEADYYCQSYDSSLSGSVFGGGTKLTVL
notes: human IgG1
In the test with SARS-CoV-2 wild-type RBD [3], B5 displayed a Kd of 2800 pM, an off-rate constant (koff) of 0.00149 s⁻¹ and an on-rate constant (kon) of 533000 M⁻¹ s⁻¹. In the test with SARS-CoV-2 wild-type RBD [4], this molecule had a koff of 0.000376 s⁻¹ and a kon of 472000 M⁻¹ s⁻¹.

B6: C092 (antibody, V domains shown)
VH: QVQLVQSGAEVKKPGSSVKVSCKASGGSFTNHFISWVRQAPGQGLEWMGRIIPILGTANYAQNFQGRVMMTADKSTSTAYMELSSLRSEDTAVYYCARDSGYSGYGSTYYMDVWGKGTTVTVSS
VL: QSVLTQPPSVSGAPGQRVTISCTGSNSNIGAGYDVHWYQQLPGAAPKLLIYGNNNRPSGVPDRFSGSKSDTSASLAITGLQVEDEADYYCQSYDSSLSDSVFGSGTKVTVL
notes: human IgG1
B6: in the test with SARS-CoV-2 wild-type RBD [1], binding was put at a Kd of 160 pM, the koff worked out at 0.000103 s⁻¹ and the kon stood at 642000 M⁻¹ s⁻¹.

B7: C832 (antibody, V domains shown)
VH: QVQLVQSGAEVKKPGSSVKVSCKASGGTFSSYSISWVRQAPGQGLEWMGRIIPILGIASYAQKFQGRVTITADKSTSTVYMELTGLRSDDTAVYYCARDRGYSDYGSHYYMDVWGKGTTVTVSS
VL: QSVLTQPPSVSGAPGQRVTISCTGSSSNIGAGYDVHWYQQLPGTAPKLLIYINSNRPSGVPDRFSGSKSGTSASLAITGLQAEDEADYYCQSYDSSLSDSVFGGGTKLTVL
notes: human IgG1
For the molecule B7, in the test with SARS-CoV-2 wild-type RBD [1], the dissociation constant (Kd) came out at 630 pM, the dissociation rate constant (koff) came to 0.000246 s⁻¹ and the on-rate (kon) was found to be 387000 M⁻¹ s⁻¹.

B8: R1-32 (human IgG1 monoclonal antibody) (antibody, V domains shown)
VH: EVQLVESGAEVKKPGSSVKVSCKASGGTFSSYAISWVRQAPGQGLEWMGGIIPILGIANYAQKFQGRVTITADKSTSTAYMELSSLRSEDTAVYYCARENGYSGYGAAANFDLWGRGTLVTVSS
VL: QSVLTQPPSVSGAPGQRVTISCTGSSSNIGAGYDVHWYQQLPGTAPKLLIYGNSNRPSGVPDRFSGSKSGTSASLAITGLQAEDEADYYCQSYDSSLSGSVFGGGTKLTVL
Molecule B8 had an equilibrium dissociation constant (Kd) in test [5] of 800 pM.

B9: C807 (antibody, V domains shown)
VH: QVQLVQSGAEAKKPGSSVKVSCKASGGTFKSYIINWVRQAPGQGLEWMGEIIPIFGTANYAQKFQGRVTSTADESTSTAYMELSSLKSEDTAVYYCARGRGYSGYGASYYFDYWGQGTLVTVSS
VL: QSVLTQPPSVSGAPGQRVTISCTGSNSNIGAGYDVHWYQQLPGTAPKLLIYANSNRPSGVPDRFSGSKSGTSASLAITGLQAEDEADYYCQSYDSGLSGSVFGGGTKLTVL
notes: human IgG1
For the molecule B9, in the test with SARS-CoV-2 wild-type RBD [1], binding was characterised by a dissociation constant (Kd) of 790 pM, the dissociation rate constant (koff) turned out to be 0.000431 s⁻¹ and the kon came out at 547000 M⁻¹ s⁻¹.

B10: C091 (antibody, V domains shown)
VH: QVQLVQSGAEVKKPGSSVKVSCKASGGTFSSYTISWVRQAPGQGLEWMGRIIPILGIANYAQKFQGRVTITADKSTSTAYMELSSLRSEDTAVYYCARDSGYSGYGSTYYMDVWGKGTTVTVSS
VL: QSVLTQPPSVSGAPGQRVTISCTGSSSNIGAGYDVHWYQQLPGTAPKLLIYGNSNRPSGVPDRFSGSKSGTSASLAITGLQAEDEADYYCQSYDSSLSGSVFGTVTKVTVL
notes: human IgG1
In the test with SARS-CoV-2 wild-type RBD [1], B10 showed a Kd of 9750 pM, a koff of 0.00337 s⁻¹ and a kon of 346000 M⁻¹ s⁻¹.
